The experiment has as its target GST-AKT1 CA (85 kDa) (UniProt P31749 1-480). Nature of the experiment: BLI. (In general: In BLI a coated tip is dipped into the sample, and binding shifts an interference pattern.)

Chain of GST-AKT1 CA (85 kDa) (P31749 whole entry): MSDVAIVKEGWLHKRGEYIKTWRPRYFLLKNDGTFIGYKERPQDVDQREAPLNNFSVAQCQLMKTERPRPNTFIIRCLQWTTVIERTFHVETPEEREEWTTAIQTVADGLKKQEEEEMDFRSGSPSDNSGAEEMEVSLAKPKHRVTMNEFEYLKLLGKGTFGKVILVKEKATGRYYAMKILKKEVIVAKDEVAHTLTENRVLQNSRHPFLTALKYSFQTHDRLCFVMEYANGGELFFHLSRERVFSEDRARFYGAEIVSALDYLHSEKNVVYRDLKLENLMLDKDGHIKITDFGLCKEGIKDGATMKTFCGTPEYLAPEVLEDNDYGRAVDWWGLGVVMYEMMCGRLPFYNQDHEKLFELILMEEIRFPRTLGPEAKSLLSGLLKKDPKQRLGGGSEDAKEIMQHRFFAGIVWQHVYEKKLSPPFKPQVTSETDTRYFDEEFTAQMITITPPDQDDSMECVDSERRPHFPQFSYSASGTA

B1: GST-PALLD third IgC domain (40 kDa) (domain or fragment)
chain: PFFEMKLKHYKIFEGMPVTFTCRVAGNPKPKIYWFKDGKQISPKSDHYTIQRDLDGTCSLHTTASTLDDDGNYTIMAANPQGRIS
modifications: labelled by biotin
The term Kd denotes the equilibrium constant for the complex coming apart. Low values mean a tighter complex, high ones a looser complex. Turning to B1, the Kd is 0.0772 nM.

The values are drawn from paper PMC5603589 (2017).
